According to patent US20230357420A1 (VILLARIS THERAPEUTICS, published 2023):

Biological target: T1, Human CD122 (human, UniProt P14784 27-551)
T1 construct: also called hCD122; IL2RB
T1 sequence: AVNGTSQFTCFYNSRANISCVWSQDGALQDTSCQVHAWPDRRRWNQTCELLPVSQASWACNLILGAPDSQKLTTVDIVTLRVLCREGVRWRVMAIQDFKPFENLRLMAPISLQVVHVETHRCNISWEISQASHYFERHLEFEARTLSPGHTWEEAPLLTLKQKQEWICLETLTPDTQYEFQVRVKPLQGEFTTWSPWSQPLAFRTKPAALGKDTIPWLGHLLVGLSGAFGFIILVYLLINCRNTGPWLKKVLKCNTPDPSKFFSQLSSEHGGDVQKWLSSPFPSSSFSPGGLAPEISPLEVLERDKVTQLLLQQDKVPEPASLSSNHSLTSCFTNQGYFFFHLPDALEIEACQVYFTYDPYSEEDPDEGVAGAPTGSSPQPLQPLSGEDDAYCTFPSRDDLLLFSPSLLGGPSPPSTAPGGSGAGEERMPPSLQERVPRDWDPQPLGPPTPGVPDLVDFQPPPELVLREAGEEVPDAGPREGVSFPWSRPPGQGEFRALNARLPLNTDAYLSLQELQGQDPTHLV
Assay: flow cytometry (FACS) on huIL15Rβ-transfected CHO-K1 cells, anti-human IgG-FITC, GeoMFI
Protocol: Purified IgGs were tested in FACs for binding to human and rhesus CD122 expressed on CHO-K1 stable cell lines and CHO-K1 wild-type cells. The IgG samples were titrated in three-fold serial dilutions starting at 500 nM to […]. Binding of IgGs was detected with a mouse anti-human IgG conjugated to FITC. Results were analyzed by examining the Mean Fluorescence Intensity (MFI) of 10000 cells per sample in the BL-1 channel detector of a flow cytometer (AttuneTM NxT Acoustic Focusing Cytometer, Invitrogen/ ThermoFisher Scientific).

B1: IgG1-MIKβ1 (humanized) (antibody, V domains shown)
VH: EVQLLESGGGLVQPGGSLRLSCAASGFSVTSYGVHWIRQAPGKGLEWLGVIWSGGSTDYNAAFISRLTISKDNSKNTVYFQMNSLQAEDTAIYYCARAGDYNYDGFAYWGQGTLVTVSS
VL: DIVLTQSPSSLSASVGDRVTITCSGSSSVSFMYWYQQRPGKAPRLLIYDTSNLASGVPSRFSGSGSGTSYTFTISSLQPEDIATYYCQQWSTYPLTFGQGTKVEVK
notes: also called VillMab-1; VillMAB-1
- EC50 (read off the curve): ~0.9 nM
